# B1: ss54-FLU (ssDNA)
# DNA: TCCTTTTGATAAGAGGTCATTTTTGCGGATGGCTTAGAGCTTAATTGCGCAACG
# Molecular target: TOPOIIIalpha (TRR complex);RMI1 (TRR complex);RMI2 (TRR complex) (Homo sapiens;Homo sapiens;Homo sapiens, UniProt Q13472;Q9H9A7;Q96E14 1-1001;1-625;1-147, ||)
# Assay: fluorescence anisotropy; 5 mM MgCl2; 50 mM Tris-HCl pH 7.5, 50 mM NaCl, 1 mM DTT, 5 mM MgCl2, 50 µg/mL BSA, 25 °C; 10 nM labeled DNA in direct titrations
# Details: protein: recombinant;recombinant;recombinant; tags: His;;; copies: 1;1;1; label: 3'-fluorescein; single strand
# Chain of TOPOIIIalpha (TRR complex);RMI1 (TRR complex);RMI2 (TRR complex) (Q13472 whole entry, chain 1 of 3): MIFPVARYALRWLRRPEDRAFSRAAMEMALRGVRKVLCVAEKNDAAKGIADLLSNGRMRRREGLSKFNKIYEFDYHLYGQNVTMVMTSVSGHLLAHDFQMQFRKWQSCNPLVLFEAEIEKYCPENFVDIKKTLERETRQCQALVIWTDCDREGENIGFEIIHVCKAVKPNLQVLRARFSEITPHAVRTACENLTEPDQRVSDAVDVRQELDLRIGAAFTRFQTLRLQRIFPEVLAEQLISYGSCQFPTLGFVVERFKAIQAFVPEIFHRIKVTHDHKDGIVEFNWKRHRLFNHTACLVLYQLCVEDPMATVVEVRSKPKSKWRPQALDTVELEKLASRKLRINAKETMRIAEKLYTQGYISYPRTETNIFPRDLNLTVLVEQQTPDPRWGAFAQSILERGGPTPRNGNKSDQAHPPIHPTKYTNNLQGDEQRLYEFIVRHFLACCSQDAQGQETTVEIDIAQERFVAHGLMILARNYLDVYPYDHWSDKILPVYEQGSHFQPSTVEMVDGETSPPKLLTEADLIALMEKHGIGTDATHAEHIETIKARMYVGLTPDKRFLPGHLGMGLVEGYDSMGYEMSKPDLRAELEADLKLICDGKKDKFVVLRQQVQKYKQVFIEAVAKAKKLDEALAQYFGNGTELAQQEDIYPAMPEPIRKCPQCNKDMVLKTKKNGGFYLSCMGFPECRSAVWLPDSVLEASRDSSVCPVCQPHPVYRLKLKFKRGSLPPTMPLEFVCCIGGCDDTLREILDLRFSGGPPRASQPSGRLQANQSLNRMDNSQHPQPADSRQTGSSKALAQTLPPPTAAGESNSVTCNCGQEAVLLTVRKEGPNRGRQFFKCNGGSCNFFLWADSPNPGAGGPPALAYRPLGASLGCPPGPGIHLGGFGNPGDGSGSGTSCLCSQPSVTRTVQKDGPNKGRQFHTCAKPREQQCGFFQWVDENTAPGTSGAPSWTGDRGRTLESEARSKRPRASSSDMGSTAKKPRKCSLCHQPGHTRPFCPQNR
# Chain of TOPOIIIalpha (TRR complex);RMI1 (TRR complex);RMI2 (TRR complex) (Q9H9A7 whole entry, chain 2 of 3): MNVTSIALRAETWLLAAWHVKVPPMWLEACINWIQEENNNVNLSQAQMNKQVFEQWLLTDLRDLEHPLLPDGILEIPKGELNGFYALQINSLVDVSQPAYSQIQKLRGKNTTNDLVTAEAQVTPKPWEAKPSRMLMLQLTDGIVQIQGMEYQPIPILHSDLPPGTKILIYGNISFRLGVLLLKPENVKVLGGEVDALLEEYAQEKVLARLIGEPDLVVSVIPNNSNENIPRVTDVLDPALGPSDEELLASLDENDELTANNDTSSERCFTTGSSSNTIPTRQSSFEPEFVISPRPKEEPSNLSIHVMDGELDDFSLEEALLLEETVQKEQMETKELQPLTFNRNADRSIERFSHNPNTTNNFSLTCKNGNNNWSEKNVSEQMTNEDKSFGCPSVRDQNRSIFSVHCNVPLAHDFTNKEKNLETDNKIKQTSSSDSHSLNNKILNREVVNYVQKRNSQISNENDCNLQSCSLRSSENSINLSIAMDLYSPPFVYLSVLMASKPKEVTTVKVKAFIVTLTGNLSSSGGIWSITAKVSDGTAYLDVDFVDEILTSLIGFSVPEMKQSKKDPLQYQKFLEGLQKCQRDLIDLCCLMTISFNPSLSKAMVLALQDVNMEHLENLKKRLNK
# Chain of TOPOIIIalpha (TRR complex);RMI1 (TRR complex);RMI2 (TRR complex) (Q96E14 whole entry, chain 3 of 3): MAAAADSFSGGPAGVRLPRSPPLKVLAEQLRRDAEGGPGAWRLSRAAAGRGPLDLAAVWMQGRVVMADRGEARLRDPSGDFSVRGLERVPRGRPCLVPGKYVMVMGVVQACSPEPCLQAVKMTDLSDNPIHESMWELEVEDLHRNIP
binder,measurement,value
B1,Kd,64 ± 13 nM

# Source: publication PMC8813930, “The toposiomerase IIIalpha-RMI1-RMI2 complex orients human Bloom’s syndrome helicase for efficient disruption of D-loops”
